Measured values published in US7488598B2, “Mutant purine nucleoside phosphorylase proteins and cellular delivery thereof” (priority 2001, dated 2009).
Changes are numbered by the printed parent chain. Numbers in names are those of the source.

How the values were obtained:
[1] = E. coli PNP enzyme activity with substrate MeP-dR; conditions: substrate MeP-dR; percent of wild-type activity
[2] = E. coli PNP enzyme activity with substrate F-araA; conditions: percent of wild-type activity

B1: A157F (protein, UniProt P0ABP8 2-239, looked up, variant A157F)
Purine nucleoside …: ATPHINAEMGDFADVVLMPGDPLRAKYIAETFLEDAREVNNVRGMLGFTGTYKGRKISVMGHGMGIPSCSIYTKELITDFGVKKIIRVGSCGAVLPHVKLRDVVIGMGACTDSKVNRIRFKDHDFAAIADFDMVRNAVDAAKALGIDARVGNLFSFDLFYSPDGEMFDVMEKYGILGVEMEAAGIYGVAAEFGAKALTICTVSDHIRTHEQTTAAERQTTFNDMIKIALESVLLGDKE
Percent of Control Activity, MeP-dR [1]: 1.5% | Percent of Control Activity, F-araA [2]: 1.4%

B2: M181V (protein, UniProt P0ABP8 2-239, looked up, variant M181V)
Purine nucleoside …: B1 Purine nucleoside … with F156A, M180V
Percent of Control Activity, MeP-dR [1]: 0.02% | Percent of Control Activity, F-araA [2]: 0.07%

B3: E182A (protein, UniProt P0ABP8 2-239, looked up, variant E182A)
Purine nucleoside …: B1 Purine nucleoside … with F156A, E181A
Percent of Control Activity, MeP-dR [1]: 0.5% | Percent of Control Activity, F-araA [2]: 0.9%

B4: D205A (protein, UniProt P0ABP8 2-239, looked up, variant D205A)
Purine nucleoside …: B1 Purine nucleoside … with F156A, D204A
Percent of Control Activity, MeP-dR [1]: 1.0% | Percent of Control Activity, F-araA [2]: 1.1%

B5: E180T (protein, UniProt P0ABP8 2-239, looked up, variant E180T)
Purine nucleoside …: B1 Purine nucleoside … with F156A, E179T
Percent of Control Activity, MeP-dR [1]: 0.06% | Percent of Control Activity, F-araA [2]: 0.1%

B6: E182V (protein, UniProt P0ABP8 2-239, looked up, variant E182V)
Purine nucleoside …: B1 Purine nucleoside … with F156A, E181V
Percent of Control Activity, MeP-dR [1]: 0.3% | Percent of Control Activity, F-araA [2]: 0.6%

B7: E180S (protein, UniProt P0ABP8 2-239, looked up, variant E180S)
Purine nucleoside …: B1 Purine nucleoside … with F156A, E179S
Percent of Control Activity, MeP-dR [1]: 0.5% | Percent of Control Activity, F-araA [2]: 0.8%

B8: M181L (protein, UniProt P0ABP8 2-239, looked up, variant M181L)
Purine nucleoside …: B1 Purine nucleoside … with F156A, M180L
Percent of Control Activity, MeP-dR [1]: 0.6% | Percent of Control Activity, F-araA [2]: 1.6%

B9: E182Q (protein, UniProt P0ABP8 2-239, looked up, variant E182Q)
Purine nucleoside …: B1 Purine nucleoside … with F156A, E181Q
Percent of Control Activity, MeP-dR [1]: 0.6% | Percent of Control Activity, F-araA [2]: 1.0%

B10: D205N (protein, UniProt P0ABP8 2-239, looked up, variant D205N)
Purine nucleoside …: B1 Purine nucleoside … with F156A, D204N
Percent of Control Activity, MeP-dR [1]: 2.2% | Percent of Control Activity, F-araA [2]: 2.4%

B11: M181E (protein, UniProt P0ABP8 2-239, looked up, variant M181E)
Purine nucleoside …: B1 Purine nucleoside … with F156A, M180E
Percent of Control Activity, MeP-dR [1]: 0.04% | Percent of Control Activity, F-araA [2]: 0.1%

B12: E180N (protein, UniProt P0ABP8 2-239, looked up, variant E180N)
Purine nucleoside …: B1 Purine nucleoside … with F156A, E179N
Percent of Control Activity, MeP-dR [1]: 0.2% | Percent of Control Activity, F-araA [2]: 0.3%

B13: M181N (protein, UniProt P0ABP8 2-239, looked up, variant M181N)
Purine nucleoside …: B1 Purine nucleoside … with F156A, M180N
Percent of Control Activity, MeP-dR [1]: 0.1% | Percent of Control Activity, F-araA [2]: 0.4%

B14: M181A (protein, UniProt P0ABP8 2-239, looked up, variant M181A)
Purine nucleoside …: B1 Purine nucleoside … with F156A, M180A
Percent of Control Activity, MeP-dR [1]: 0.04% | Percent of Control Activity, F-araA [2]: 0.2%
